Experimental data published in patent publication US20130171063A1 (LUDWIG INSTITUTE FOR CANCER RESEARCH, published 2013).

Tests used:
[1] = molecular target: T1, purified truncated c-Met fragment designated 25-567H (human, UniProt P08581 25-567); assay: ELISA, plate coated with recombinant truncated c-Met antigen
T1 construct: Produced in transfected CHO-Lec cells; also called c-Met antigen; c-Met Ag
Procedure: Following incubation, the supernatant was removed and the wells washed twice with wash buffer 0.05% Tween20-PBS, this was followed by a 1 hour block at room temperature with 3% FCS/PBS at 230 μl/well. The wells were then washed one with wash buffer (0.05% Tween 2-PBS) and rinsed with PBS. 100 μl of sample (hybridoma supernatant) was then added to each well and the plate incubated at room temperature for 1 hour. This was followed by a 4× wash with wash buffer (0.05% Tween 2-PBS) and rinse with PBS. 100 μl of goat anti-mouse Ig gamma-AP (Sigma A3438), diluted in wash buffer 1:2000 was then added and allowed to incubate at room temperature for 1 hour. Following the incubation, the wells were washed 4× with wash buffer and rinsed with PBS. The reaction was developed with 100 μl of pNPP (1 mg/ml n diethanolamine-HCL buffer pH 9.6) for 10 mins at room temperature. This was followed by stop solution (3.0 M NaOH, 50 μl/well). The OD was measured at 405 nm.

[2] = molecular target: T2, c-Met receptor as expressed by human tumor cells (total c-Met) (human, UniProt P08581 25-1390); assay: flow cytometry on A549 cells, PE-conjugated anti-mouse secondary antibody
T2 construct: whole, on cells; also called surface c-Met; HGFR
Source text: The control antibody was a mouse IgG1 isotype matched antibody. An increase in PE signal intensity indicated antibody binding to c-Met.

[3] = molecular target: T3, unprocessed c-Met (p170) (human, UniProt P08581 25-1390); assay: immunoprecipitation from A549 cells, western blot with 25H2 under reducing conditions
T3 construct: whole, on cells; Single-chain precursor, not cleaved at the furin site; also called unprocessed form of c-Met; c-Met precursor

[4] = molecular target: T1, purified truncated c-Met fragment …; assay: BIAcore, His6-c-Met 25-567 on Ni-NTA chip, antibody passed over; apparent KD
Source text: The LMH antibodies were passed over the chip at varying concentrations in order to determine apparent affinity (KD). Chips were regenerated with EDTA.

[5] = molecular target: T4, peptide 48 (N-terminal biotin); assay: ELISA on biotinylated 20-mer c-Met peptides on streptavidin plates, A405 nm, mean ± SEM
T4 peptide: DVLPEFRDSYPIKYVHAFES
Procedure: (§1) The library consisted of N-terminally biotinylated, 20-mer peptides, overlapping by 15 amino acids and pre-absorbed onto 96-well streptavidin coated plates. LMH antibodies 80 to 89 were added to these plates to determine their reactivity against each single peptide using standard ELISA. Epitopes for each antibody were determined by overlaying the sequences of the peptides which reacted with the antibody, leading to a determination of a core common amino acid sequence.
(§2) The peptide sequence bound by each antibody was aligned to determine the core epitope.

[6] = molecular target: T5, peptide 47 (N-terminal biotin); assay: as above
T5 peptide: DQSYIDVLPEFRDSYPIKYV
Procedure: as §1, §2

[7] = molecular target: T6, peptide 46 (N-terminal biotin); assay: as above
T6 peptide: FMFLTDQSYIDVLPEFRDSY
Procedure: as §1, §2

[8] = molecular target: T7, peptide 23 (N-terminal biotin); assay: ELISA on biotinylated 20-mer c-Met peptides on streptavidin plates, A405 nm
T7 peptide: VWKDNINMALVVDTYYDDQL
Procedure: as §1, §2

[9] = molecular target: T8, peptide 25 (N-terminal biotin); assay: as above
T8 peptide: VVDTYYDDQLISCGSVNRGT
Procedure: as §1, §2

[10] = molecular target: T9, peptide 24 (N-terminal biotin); assay: as above
T9 peptide: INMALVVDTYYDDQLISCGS
Procedure: as §1, §2

T1 sequence (P08581 other isoform, or with tags, fused parts or gaps limits assumed): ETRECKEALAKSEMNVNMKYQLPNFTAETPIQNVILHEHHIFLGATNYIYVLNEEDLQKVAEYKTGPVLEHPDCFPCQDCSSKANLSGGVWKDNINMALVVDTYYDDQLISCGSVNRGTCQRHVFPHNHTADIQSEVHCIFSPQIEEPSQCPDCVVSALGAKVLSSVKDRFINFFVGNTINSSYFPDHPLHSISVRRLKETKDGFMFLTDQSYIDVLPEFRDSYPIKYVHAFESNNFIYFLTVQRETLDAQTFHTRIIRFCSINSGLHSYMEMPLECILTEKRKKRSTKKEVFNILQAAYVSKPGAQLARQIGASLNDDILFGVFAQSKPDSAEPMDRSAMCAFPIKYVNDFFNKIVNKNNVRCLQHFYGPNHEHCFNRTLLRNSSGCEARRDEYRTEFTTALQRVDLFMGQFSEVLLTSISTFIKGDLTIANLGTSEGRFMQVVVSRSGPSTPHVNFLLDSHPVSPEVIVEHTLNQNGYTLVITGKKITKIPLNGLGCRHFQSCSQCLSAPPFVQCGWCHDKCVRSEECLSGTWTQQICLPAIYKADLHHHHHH
T3 sequence (P08581 25-1390): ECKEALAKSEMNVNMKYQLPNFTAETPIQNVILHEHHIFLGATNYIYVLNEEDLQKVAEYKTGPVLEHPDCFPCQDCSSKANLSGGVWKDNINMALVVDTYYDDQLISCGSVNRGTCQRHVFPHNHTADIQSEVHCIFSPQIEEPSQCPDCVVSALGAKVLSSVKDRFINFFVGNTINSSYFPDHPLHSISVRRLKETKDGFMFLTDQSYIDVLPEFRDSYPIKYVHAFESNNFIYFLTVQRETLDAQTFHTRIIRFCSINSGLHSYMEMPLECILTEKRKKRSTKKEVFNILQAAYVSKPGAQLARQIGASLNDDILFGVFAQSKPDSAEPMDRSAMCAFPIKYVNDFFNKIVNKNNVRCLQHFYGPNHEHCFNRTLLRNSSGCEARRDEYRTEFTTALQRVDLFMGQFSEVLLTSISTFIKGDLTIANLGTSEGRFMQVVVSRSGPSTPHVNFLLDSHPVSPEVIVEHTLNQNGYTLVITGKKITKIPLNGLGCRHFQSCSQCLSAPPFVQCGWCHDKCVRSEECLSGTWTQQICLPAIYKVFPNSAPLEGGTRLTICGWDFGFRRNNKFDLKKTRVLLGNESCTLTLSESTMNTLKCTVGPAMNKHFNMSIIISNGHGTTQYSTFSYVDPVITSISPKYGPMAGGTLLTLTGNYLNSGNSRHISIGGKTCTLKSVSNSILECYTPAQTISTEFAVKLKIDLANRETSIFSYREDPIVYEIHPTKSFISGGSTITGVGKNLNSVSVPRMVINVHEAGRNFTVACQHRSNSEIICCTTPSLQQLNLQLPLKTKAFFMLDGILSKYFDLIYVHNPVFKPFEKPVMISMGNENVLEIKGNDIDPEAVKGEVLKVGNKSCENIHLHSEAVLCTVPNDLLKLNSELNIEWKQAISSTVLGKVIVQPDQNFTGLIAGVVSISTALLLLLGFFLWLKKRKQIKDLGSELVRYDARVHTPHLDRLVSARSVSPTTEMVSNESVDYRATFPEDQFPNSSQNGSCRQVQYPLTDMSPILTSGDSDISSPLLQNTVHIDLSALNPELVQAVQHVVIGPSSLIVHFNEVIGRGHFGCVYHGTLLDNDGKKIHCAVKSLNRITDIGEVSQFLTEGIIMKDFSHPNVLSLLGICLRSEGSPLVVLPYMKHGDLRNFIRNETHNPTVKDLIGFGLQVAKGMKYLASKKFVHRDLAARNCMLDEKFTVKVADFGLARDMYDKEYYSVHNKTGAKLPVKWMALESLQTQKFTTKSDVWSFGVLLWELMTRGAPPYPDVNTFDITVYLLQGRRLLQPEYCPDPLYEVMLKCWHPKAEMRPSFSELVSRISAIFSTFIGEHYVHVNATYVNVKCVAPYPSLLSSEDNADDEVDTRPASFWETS
T2 sequence (P08581 25-1390): as above

B1: antibody LMH 85 (antibody, V domains shown)
VH: QVQLQQSGAELAKPGASVKMSCKASGYTFIIYWIHWIKQRPGQGLEWIGYINPSNDYTEYNQKFKDKATLTADKSSNTAFMQLSSLTSEDSAVYYCARDSYDYDDGAYAMDYWGQGTSVTVSS
VL: QIVLSQSPAILSASPGEKVTMTCRASSGVNYMHWYQQKPGSSPKPWIYATSNLASGVPARFSGSGSGTSYSLTISRVEAEDAATYYCQQWISHPFTFGSGTKLEIK
notes: Mouse monoclonal antibody from a hybridoma
binding result [1]: binds
binding result [2]: binds
binding result [3]: binds

B2: antibody LMH 87 (antibody, V domains shown)
VH: QVQLQQSGPELVKSGASVKMSCKASGNTLKDDHVHWVKQRPGQGLEWIGWIYPGGGRTRYNEKFKGKTTLTADKPSSTVNMLLSSLTSEDSAIYFCTNLVFDVWGAGTTVTVSS
VL: DIVMTQAAPSVPVTPGESVSISCRSSKSLLHSNGNTYLYWFLQRPGQSPQVLIYRMSNLASGVPDRFSGSGSGTAFTLRIRRVEAEDVGVYYCMQNLEYPFTFGGGTKLEIK
notes: as for B1
Kd [4]: 2.6 nM
binding result [5]: binds
binding result [6]: binds
binding result [7]: binds

B3: antibody LMH 82 (antibody, V domains shown)
VH: EVQLQQSGPELVKPGASVKMSCKASGYTFTDYYMKWVKQSHGKNLEWIGDINPNNGGTNYNQKFKGKATLTVDKSSSTAYMQLNSLTSEDSAVYYCARSGYWGQGTTLTVSS
VL: DVLMTQTPLSLPVSLGDQASISCRSSQSILHSNGNTYLEWYLQKPGQSPKLLIYKVSNRFSGVPDRFSGSGSGTDFTLKISRVEAEDLGVYYCFQGSHVPWTFGGGTKLEIK
notes: Mouse monoclonal antibody from a hybridoma; also called hybridoma PTA-11406
binding result [8]: binds
binding result [9]: binds
binding result [10]: binds
